Experimental data taken from patent US20140302035A1.

B1: OA-5D5 (antibody, part only; not given: constant regions and Fc knob chain, V domains shown, not shown: another chain or arm of the molecule; a dimerising Fc or GST)
VH: EVQLVESGGGLVQPGGSLRLSCAASGYTFTSYWLHWVRQAPGKGLEWVGMIDPSNSDTRFNPNFKDRFTISADTSKNTAYLQMNSLRAEDTAVYYCATYRSYVTPLDYWGQGTLVTVSS
VL: DIQMTQSPSSLSASVGDRVTITCKSSQSLLYTSSQKNYLAWYQQKPGKAPKLLIYWASTRESGVPSRFSGSGSGTDFTLTISSLQPEDFATYYCQQYYAYPWTFGQGTKVEIK
B2: Ab#5 (bispecific antibody, human IgG1, kappa)
heavy: QLQLQESGPGLVKPSETLSLTCTVSGGSISSSVYYWSWIRQPPGKGLEWIGVIYPSGNTYYSPSLKSRVTISVDTSKNQFSLKLSSVTAADTAVYYCARTIYDLFDIWGQGTMVTVSSASTKGPSVFPLAPSSKSTSGGTAALGCLVKDYFPEPVTVSWNSGALTSGVHTFPAVLQSSGLYSLSSVVTVPSSSLGTQTYICNVNHKPSNTKVDKKVEPKSCDKTHTCPSCPAPEFLGGPSVFLFPPKPKDTLMISRTPEVTCVVVDVSQEDPEVQFNWYVDGVEVHNAKTKPREEQFNSKYRVVSVLTVLHQDWLNGKEYKCKVSNKGLPSSIEKTISKAKGQPREPQVYTLPPSREEMTKNQVSLSCAVKGFYPSDIAVEWESNGQPENNYKTTPPVLDSDGSFFLVSKLTVDKSRWQQGNVFSCSVMHEALHNHYTQKSLSLSKSCDKTGGGGSGGGGSGGGGSGGGGSGGGGSGGGGSGGGGSGGGGSCPSCPAPEFLGGPSVFLFPPKPKDTLMISRTPEVTCVVVDVSQEDPEVQFNWYVDGVEVHNAKTKPREEQFNSDYRVVSVLTVLHQDWLNGKEYKCKVSNKGLPSSIEKTISKAKGQPREPQVYTLPPSREEMTKNQVSLWCLVKGFYPSDIAVEWESNGQPENNYKTTPPVLDSDGSFFLYSKLTVDKSRWQQGNVFSCSVMHEALHNHYTQKSLSLSGECGGGGSGGGGSDIVMTQSPLSLPVTPGEPASISCRSTKSLLHSNGITYLYWYLQKPGQSPQLLIYQMSNLASGVPDRFSSSGSGTDFTLKISRVEAEDEGVYYCAQNLEIPRTFGGGTKLEIKRTGGGGSGGGGSGGGGSGGGGSQVQLVQSGAEVKKPGESVKISCKASGYTFTNYGMNWVRQAPGQGLKWMGWINTYTGESTYADDFKGRFAFSLDTSASTAYLQLSSLRSEDTAVYFCARFAIKGDYWGQGTLVTVSS
light: DIQMTQSPSSVSASVGDRVTITCRASQGISSWLAWYQQKPGKAPKLLIYAASSLQSGVPSRFSGSGSGTDFTLTISSLQPEDFATYYCLQANSFPPTFGGGTKVEIKRTVAAPSVFIFPPSDEQLKSGTASVVCLLNNFYPREAKVQWKVDNALQSGNSQESVTEQDSKDSTYSLSSTLTLSKADYEKHKVYACEVTHQGLSSPVTKSFNRGEC

Columns and labels:
c-Met (human) = c-Met (human) (UniProt P08581); assay: cell-based or functional assay
c-Met (human), P08581 = assay: cell-based or functional assay
Sequence of c-Met (human), P08581 (P08581 25-1390): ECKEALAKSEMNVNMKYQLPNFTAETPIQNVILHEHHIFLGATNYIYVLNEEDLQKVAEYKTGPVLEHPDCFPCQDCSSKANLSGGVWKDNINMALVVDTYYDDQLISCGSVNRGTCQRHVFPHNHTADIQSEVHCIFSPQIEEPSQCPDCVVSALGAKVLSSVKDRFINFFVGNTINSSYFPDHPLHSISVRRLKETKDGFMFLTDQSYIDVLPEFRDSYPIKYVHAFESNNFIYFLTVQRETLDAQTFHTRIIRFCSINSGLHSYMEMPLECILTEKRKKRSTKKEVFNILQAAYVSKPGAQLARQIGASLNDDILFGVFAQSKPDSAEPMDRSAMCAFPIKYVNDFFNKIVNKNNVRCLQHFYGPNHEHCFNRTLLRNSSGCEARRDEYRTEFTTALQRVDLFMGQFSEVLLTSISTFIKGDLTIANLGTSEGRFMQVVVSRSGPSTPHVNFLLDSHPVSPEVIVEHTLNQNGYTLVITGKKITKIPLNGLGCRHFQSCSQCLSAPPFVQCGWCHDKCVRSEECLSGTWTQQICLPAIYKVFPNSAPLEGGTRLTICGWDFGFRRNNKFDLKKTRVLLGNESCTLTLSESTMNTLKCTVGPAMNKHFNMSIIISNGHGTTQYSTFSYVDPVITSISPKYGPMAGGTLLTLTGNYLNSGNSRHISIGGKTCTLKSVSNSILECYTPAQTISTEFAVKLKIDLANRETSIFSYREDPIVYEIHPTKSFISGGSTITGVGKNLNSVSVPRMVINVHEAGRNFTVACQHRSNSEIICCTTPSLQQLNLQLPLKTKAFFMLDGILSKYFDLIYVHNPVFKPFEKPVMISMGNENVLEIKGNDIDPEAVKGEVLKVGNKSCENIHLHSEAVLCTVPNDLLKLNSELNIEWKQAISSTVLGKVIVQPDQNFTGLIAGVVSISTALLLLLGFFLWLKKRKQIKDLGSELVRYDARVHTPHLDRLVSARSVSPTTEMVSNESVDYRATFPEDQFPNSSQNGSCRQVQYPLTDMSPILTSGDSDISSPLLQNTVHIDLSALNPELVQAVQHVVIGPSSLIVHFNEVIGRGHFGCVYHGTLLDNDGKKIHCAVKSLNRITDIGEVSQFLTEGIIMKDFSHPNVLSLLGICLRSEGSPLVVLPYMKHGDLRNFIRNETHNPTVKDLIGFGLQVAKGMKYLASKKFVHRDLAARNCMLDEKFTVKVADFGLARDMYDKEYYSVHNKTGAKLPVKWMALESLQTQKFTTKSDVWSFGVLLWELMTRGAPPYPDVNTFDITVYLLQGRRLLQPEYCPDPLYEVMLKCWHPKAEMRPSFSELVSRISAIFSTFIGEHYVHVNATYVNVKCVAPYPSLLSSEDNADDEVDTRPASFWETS

Sequence of c-Met (human) (P08581 25-1390): as above

Binder | c-Met degradation (total c-Met ELISA, 24 h), A549 cells (c-Met (human)) [%] | reduction of c-Met expression (total c-Met ELISA, 24 h), NCI-H2170 cells (c-Met (human)) [%] | c-Met degradation (total c-Met ELISA, 24 h), A549 cells (c-Met (human), P08581) [%] | reduction of c-Met expression (total c-Met ELISA, 24 h), NCI-H2170 cells (c-Met (human), P08581) [%]
B1 | < 20 | 30 |  | 
B2 |  |  | < 20 | 65
